In patent publication US20220289795, “EFFICIENT METHOD FOR PREPARING PPR PROTEIN AND USE OF THE SAME” (EditForce, Inc., published 2022) one finds binding signal data, which are given here for three molecules.

Common to all, as to assay: ELONA; RPB-ELISA
(In an ELISA, binding on a coated surface is turned into a signal by an enzyme label.)

In one series the target is T1, NL_v2_PPR20 (Artificial Sequence).
T1 chain: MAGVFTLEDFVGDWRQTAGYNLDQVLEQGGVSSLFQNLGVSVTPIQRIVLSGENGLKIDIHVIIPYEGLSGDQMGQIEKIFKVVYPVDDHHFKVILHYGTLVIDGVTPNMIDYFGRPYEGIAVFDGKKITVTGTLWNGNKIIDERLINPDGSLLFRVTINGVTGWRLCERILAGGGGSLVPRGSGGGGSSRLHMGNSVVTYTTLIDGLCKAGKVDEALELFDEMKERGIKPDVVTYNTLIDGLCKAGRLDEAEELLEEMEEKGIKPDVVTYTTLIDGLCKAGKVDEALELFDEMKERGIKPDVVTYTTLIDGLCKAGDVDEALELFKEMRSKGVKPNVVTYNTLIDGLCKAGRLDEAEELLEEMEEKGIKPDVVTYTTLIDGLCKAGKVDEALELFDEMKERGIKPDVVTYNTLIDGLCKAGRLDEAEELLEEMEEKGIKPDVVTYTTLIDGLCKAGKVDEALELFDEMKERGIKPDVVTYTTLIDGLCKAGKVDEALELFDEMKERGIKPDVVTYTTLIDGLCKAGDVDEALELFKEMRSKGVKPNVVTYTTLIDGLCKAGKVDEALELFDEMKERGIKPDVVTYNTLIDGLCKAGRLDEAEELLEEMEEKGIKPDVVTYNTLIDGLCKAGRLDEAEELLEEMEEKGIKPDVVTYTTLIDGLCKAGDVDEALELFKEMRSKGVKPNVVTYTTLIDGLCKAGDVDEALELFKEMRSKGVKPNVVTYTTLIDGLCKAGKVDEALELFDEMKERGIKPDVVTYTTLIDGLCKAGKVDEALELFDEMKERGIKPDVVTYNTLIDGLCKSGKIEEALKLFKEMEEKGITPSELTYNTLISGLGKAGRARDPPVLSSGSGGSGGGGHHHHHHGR
The settings on record: tags: N-term luciferase, C-term 6xHis; label: 5'-biotin.

The next series has as its target T2, v3.1_PPR20 (Artificial Sequence).
T2 chain: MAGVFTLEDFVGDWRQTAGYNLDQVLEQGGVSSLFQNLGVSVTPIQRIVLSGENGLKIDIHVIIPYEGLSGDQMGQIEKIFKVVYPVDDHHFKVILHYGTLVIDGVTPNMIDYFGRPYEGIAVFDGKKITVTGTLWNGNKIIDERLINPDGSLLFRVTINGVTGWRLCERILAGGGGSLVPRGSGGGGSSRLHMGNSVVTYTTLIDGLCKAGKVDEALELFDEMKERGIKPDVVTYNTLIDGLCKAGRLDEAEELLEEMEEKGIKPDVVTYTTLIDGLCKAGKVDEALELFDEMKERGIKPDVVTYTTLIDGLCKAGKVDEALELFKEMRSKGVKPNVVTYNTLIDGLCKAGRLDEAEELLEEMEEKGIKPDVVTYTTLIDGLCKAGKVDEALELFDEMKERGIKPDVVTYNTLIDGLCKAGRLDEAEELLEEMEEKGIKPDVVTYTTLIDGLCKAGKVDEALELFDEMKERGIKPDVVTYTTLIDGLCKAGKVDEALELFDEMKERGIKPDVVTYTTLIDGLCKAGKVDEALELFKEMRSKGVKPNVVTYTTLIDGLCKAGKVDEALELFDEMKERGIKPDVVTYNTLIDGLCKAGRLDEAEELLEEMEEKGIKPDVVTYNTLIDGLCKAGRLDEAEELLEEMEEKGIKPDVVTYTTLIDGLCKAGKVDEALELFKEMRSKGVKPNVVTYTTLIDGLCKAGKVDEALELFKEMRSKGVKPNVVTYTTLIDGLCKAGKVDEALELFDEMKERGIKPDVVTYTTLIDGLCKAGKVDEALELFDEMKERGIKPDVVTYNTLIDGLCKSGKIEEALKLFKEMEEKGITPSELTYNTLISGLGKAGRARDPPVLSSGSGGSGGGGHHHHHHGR
The settings on record: tags: luciferase fusion; label: 5'-biotin.

The target of the next series is T3, v3.1_PPR19 (Artificial Sequence).
T3 chain: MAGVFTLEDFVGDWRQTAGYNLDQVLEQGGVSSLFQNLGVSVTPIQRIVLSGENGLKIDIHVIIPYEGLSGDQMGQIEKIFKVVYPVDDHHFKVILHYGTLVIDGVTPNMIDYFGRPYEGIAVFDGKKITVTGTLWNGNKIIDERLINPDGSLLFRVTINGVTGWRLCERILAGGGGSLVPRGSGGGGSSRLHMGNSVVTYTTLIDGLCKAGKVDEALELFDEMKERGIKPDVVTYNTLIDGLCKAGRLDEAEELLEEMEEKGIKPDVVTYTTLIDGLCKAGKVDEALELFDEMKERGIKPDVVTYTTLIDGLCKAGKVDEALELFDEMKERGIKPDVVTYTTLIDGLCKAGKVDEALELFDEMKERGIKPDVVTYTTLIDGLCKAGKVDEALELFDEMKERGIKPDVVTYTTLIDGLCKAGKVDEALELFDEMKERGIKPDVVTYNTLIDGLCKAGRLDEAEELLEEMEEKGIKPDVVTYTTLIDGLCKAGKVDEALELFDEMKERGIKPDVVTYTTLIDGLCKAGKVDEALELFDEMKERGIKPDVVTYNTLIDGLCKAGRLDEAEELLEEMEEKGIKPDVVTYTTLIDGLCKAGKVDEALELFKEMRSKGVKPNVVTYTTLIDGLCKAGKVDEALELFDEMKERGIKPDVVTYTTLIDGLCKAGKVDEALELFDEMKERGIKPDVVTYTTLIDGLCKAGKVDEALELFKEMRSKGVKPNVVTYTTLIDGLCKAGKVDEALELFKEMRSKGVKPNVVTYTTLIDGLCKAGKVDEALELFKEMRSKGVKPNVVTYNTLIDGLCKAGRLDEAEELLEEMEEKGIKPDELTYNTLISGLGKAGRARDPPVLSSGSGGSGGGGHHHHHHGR
The settings on record: tags: luciferase fusion; label: 5'-biotin.

The next series deals with T4, NL_v2_PPR19 (Artificial Sequence).
T4 chain: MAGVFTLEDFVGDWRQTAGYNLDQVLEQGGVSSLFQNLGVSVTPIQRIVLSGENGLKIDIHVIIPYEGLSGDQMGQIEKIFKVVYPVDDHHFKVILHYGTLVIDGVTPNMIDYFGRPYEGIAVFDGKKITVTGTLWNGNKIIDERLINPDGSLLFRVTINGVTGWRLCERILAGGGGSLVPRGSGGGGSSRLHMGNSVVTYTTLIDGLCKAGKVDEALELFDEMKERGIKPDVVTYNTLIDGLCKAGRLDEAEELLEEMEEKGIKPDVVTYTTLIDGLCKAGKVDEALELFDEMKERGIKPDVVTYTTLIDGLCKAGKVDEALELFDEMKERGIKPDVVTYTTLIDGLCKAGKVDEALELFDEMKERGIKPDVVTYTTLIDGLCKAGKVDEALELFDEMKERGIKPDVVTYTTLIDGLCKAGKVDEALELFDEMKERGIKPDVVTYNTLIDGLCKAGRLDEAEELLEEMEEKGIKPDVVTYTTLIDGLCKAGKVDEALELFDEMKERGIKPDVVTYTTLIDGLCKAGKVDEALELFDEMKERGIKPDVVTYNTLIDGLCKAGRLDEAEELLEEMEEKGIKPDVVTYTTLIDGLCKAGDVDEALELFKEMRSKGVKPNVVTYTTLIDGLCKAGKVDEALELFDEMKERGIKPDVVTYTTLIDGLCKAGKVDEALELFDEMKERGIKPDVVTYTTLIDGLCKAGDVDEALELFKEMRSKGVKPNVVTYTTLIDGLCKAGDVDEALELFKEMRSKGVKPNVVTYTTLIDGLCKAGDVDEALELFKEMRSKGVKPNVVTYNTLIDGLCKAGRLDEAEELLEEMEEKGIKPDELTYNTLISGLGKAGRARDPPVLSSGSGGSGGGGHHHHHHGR
The settings on record: tags: N-term luciferase, C-term 6xHis; label: 5'-biotin.

In a further series the target is T5, NL_v2_PPR18 (Artificial Sequence).
T5 chain: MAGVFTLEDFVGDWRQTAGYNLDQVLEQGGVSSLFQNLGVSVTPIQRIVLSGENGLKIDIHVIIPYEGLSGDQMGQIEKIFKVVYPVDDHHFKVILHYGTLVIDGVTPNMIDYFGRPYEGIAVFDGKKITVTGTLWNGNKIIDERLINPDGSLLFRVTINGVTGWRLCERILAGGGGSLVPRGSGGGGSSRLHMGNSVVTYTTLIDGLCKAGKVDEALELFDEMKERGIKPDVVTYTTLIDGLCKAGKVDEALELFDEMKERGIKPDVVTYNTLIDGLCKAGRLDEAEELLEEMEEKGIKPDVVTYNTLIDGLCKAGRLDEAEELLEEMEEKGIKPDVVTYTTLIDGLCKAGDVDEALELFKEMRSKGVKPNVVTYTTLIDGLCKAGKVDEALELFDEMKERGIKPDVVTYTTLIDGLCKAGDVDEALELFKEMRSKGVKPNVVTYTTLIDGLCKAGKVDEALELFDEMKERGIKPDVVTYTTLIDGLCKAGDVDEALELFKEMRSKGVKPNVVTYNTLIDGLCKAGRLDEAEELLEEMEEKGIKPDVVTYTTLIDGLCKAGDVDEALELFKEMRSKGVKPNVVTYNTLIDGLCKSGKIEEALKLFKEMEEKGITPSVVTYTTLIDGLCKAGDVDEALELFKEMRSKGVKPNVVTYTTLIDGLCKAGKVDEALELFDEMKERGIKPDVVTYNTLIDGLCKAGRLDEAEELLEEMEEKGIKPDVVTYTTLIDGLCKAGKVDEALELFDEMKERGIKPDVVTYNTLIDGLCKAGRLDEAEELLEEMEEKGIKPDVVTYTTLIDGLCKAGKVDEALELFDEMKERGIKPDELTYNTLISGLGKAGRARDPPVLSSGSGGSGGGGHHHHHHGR
The settings on record: tags: N-term luciferase, C-term 6xHis; label: 5'-biotin.

Another series has as its target T6, v3.1_PPR18 (Artificial Sequence).
T6 chain: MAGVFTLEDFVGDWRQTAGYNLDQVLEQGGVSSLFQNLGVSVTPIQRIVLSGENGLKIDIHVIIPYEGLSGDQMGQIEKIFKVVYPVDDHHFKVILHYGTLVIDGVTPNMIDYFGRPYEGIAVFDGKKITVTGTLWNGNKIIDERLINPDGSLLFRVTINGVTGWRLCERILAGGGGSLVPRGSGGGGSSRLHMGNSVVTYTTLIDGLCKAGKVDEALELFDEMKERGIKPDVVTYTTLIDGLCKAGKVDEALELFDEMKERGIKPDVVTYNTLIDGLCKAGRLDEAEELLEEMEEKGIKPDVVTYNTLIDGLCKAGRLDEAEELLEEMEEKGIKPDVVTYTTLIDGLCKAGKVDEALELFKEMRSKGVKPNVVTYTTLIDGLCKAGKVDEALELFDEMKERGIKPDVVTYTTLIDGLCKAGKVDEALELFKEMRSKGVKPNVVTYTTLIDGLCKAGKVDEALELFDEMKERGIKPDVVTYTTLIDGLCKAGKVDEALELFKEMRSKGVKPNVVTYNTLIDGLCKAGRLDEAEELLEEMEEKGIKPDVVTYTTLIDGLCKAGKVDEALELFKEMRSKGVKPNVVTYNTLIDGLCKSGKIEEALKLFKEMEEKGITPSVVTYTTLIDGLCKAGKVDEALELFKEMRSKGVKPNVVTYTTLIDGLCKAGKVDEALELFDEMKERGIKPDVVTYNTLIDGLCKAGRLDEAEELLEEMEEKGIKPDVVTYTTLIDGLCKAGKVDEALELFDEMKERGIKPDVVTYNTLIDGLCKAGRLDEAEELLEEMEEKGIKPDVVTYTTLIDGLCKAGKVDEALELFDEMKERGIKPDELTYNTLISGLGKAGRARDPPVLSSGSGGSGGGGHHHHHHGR
As to conditions: tags: luciferase fusion; label: 5'-biotin.

B1: RNA_20 (ssRNA)
RNA: GACAUGCGUGAUGUGGAGUUAAGGCGACUG
For the molecule B1, the binding signal is 1.2e+07 luminescence in the series with NL_v2_PPR20 and 3.6e+06 luminescence with v3.1_PPR20.

B2: RNA_19 (ssRNA)
RNA: GACAUGCGUGGGGGUGGUAGGAAAUGACUG
With B2, the binding signal in the series with v3.1_PPR19 and in the series with NL_v2_PPR19 was 1.3e+07 luminescence each time.

B3: RNA_18 (ssRNA)
RNA: GACAUGCGGUUAGAGAUACAGUGUGGACUG
As for B3, the binding signal amounted to 1.1e+07 luminescence with NL_v2_PPR18 and 2.9e+07 luminescence with v3.1_PPR18.
